From patent publication US20160046689A1 (NOVELOGICS BIOTECHNOLOGY, published 2016)

T1: recombinant extracellular alpha-3 domain of MICA (allele 001), Baculovirus-expressed, C-terminal His tag (human, UniProt Q29983 205-297)
T1 construct: Expressed in Sf9 cells and purified by Ni2+ chelation with 8M urea, then dialysed; also called alpha-3 domain MICA protein; target MICA alpha-3 domain recombinant protein
T1 sequence: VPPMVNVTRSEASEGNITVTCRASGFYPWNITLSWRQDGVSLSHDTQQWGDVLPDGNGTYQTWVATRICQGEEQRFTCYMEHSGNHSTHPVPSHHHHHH

B1: antibody 8C7 (antibody, IgG1, V domains shown)
VH: QIQLVQSGPELKKPGETVKISCKASGYTFTNYGMNWVKQAPGKGLKWMGWINTNTGEPTYAEEFKGRFAFSLETSASTAYLQINNLKNEDTATYFCARSGGSSPFAYWGQGTLVTVSA
VL: DIVMTQAAPSVPVTPGESVSISCRSSKSLLQSNGNTFLYWFMQRPGQSPQLLIYRMSNLASGVPDRFSGSGSGTAFTLRISRVEAEDVGVYYCMQHLEYPFTFGGGTKLEIKR
notes: Mouse hybridoma monoclonal, IgG1 heavy chain and kappa light chain; Tested as hybridoma supernatant in ELISA and FACS; also called antibody from clone 8C7; hybridoma clone 8C7
B2: antibody 1F5 (antibody, IgG1, V domains shown)
VH: QIQLVQSGPELKKPGETVKISCKASGYTFTDYSVHWVKQAPGKGLKWMGWINTETGEPTYADDFKGRFAFSLETSASTAYLQINNLKNEDTATYFCARAGGNAFAYWGQGTLVTVSA
VL: DIVLTQSPASLAVSLGQRATISCRASKSVSTSGYSYMHWYQQKPGQPPKLLIYRASNLESGVPARFSGSGSGTDFTLNIHPVEEEDAATYYCQHSRELPLTFGAGTKLELKR
notes: Mouse hybridoma monoclonal, IgG1 heavy chain and kappa light chain; Tested as hybridoma supernatant in ELISA and FACS; also called IF5; antibody from clone 1F5

Target: T1, recombinant extracellular alpha-3 …
Assay: BLI (Octet RED96), antibody captured by anti-mouse IgG, antigen in solution, pH 7.4, 1:1 model
Procedure: Biomolecular interactions between antigen and antibody were directly measured by Bio-Layer Interferometry (BLI) using a Pall ForteBio Octet RED96 machine (Pall ForteBio, CA, USA). Real-time kinetic analyses were performed on the test MICA monoclonal antibodies 1F5 and 8C7, as well as two control antibodies, one of which could bind the alpha-3 MICA subdomain antigen (positive control) and one of which could not (negative control, binds other MICA subdomains), as previously determined by ELISA. The Octet RED96 apparatus operates under the principle of Bio-Layer Interferometry, a label-free technique that measures molecular interactions and complex formation. A key component of the technique is the optical biosensor whose tip is immersed in the fluids of the test well and then used to assay interference patterns between waves of light. Here, the ligand (monoclonal antibody) is localized to the surface of the biosensor through capture by previously bound anti-mouse IgG, while the analyte biomolecule (antigen) is kept in solution. Binding responses between ligand and analyte were measured and reported in real-time. Both association and dissociation kinetics were monitored and KD values were calculated. This model assumed a 1:1 interaction of ligand to analyte.

Binder	Kd [nM]
B1	~6.81
B2	~0.783
